According to patent US20050260733:

T1: α-2 macroglobulin
T1 sequence (P01023 24-1474, species assumed, looked up): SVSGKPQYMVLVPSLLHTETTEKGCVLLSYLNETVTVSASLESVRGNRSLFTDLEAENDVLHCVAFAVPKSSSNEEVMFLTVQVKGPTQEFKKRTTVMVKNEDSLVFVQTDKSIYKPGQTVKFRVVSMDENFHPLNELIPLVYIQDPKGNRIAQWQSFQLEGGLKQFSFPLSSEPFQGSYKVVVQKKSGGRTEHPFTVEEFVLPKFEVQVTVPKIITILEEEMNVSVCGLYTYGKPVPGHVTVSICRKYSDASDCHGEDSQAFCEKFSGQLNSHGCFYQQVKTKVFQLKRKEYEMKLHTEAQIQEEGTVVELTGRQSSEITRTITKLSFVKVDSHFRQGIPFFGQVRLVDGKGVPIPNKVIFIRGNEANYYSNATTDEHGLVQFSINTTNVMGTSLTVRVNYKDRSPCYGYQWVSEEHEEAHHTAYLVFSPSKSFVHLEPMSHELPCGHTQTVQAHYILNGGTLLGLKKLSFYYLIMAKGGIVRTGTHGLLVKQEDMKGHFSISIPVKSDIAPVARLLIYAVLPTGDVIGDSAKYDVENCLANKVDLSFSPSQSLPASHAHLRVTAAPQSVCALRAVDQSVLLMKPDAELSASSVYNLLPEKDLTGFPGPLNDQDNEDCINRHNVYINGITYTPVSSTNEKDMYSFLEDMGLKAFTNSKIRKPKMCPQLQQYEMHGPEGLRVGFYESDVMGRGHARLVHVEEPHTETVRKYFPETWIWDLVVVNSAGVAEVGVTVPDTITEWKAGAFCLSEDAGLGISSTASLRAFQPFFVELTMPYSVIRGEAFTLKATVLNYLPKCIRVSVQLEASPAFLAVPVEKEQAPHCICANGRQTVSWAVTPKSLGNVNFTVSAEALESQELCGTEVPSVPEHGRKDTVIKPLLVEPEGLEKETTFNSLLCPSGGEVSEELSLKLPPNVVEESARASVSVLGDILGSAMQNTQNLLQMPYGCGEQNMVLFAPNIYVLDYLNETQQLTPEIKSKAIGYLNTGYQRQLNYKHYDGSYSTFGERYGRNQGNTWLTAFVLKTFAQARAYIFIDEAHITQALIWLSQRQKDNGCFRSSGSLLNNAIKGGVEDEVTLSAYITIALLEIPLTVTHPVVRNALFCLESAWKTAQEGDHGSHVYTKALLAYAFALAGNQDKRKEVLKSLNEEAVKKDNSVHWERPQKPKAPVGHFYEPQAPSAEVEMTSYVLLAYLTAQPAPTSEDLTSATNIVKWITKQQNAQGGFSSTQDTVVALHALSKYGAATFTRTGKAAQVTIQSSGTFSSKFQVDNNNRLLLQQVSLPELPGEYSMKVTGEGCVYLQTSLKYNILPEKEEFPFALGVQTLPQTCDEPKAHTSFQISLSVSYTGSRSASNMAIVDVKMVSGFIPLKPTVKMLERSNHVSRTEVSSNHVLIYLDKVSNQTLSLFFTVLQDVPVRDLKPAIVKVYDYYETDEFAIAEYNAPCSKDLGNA

B1: recombinant C-terminally truncated ADAMTS-8 (protein)
chain: MLPAPAAPRWPPLLLLLLLLLLPLARGAPARPAAGGQASELVVPTRLPGSAGELALHLSAFGKGFVLRLAPDDSFLAPEFKIERLGGSGRATGGERGLRGCFFSGTVNGEPESLAAVSLCRGLSGSFLLDGEEFTIQPQGAGGSLAQPHRLQRWGPAGARPLPRGPEWEVETGEGQRQERGDHQEDSEEESQEEEAEGASEPPPPLGATSRTKRFVSEARFVETLLVADASMAAFYGADLQNHILTLMSVAARIYKHPSIKNSINLMVVKVLIVEDEKWGPEVSDNGGLTLRNFCNWQRRFNQPSDRHPEHYDTAILLTRQNFCGQEGLCDTLGVADIGTICDPNKSCSVIEDEGLQAAHTLAHELGHVLSMPHDDSKPCTRLFGPMGKHHVMAPLFVHLNQTLPWSPCSAMYLTELLDGGHGDCLLDAPRAALPLPTGLPGRMALYQLDQQCRQIFGPDFRHCPNTSAQDVCAQLWCHTDGAEPLCHTKNGSLPWADGTPCGPGHLCSEGSCLPEEEVERPKPVADGGWAPWGPWGECSRTCGGGVQFSHRECKDPEPQNGGRYCLGRRAKYQSCHTEECPPDGKSFREQQCEKYNAYNYTDMDGNLLQWVPKYAGVSPRDRCKLFCRARGRSEFKVFEAKVIDGTLCGPETLAICVRGQCVKAGCDHVVDSPRKLDKCGVCGGKGNSCRKVSGSLTPTNYGYNDIVTIPAGATNIDVKQRSHPGVQNDGNYLALKTADGQYLLNGNLAISAIEQDILVKGTILKYSGSIATLERLQSFRPLPEPLTVQLLTVPGEVFPPKVKYTFFVPNDVDFSMQSSKERATTNIIQPLLHAQWVLGDWSECSSTCGAGWQRRTVECRDPSGQASATCNKALKPEDAKPCESQLCPL
B2: recombinant human ADAMTS-8 with C-terminal Strep-tag (protein)
chain: RFVSEARFVETLLVADASMAAFYGADLQNHILTLMSVAARIYKHPSIKNSINLMVVKVLIVEDEKWGPEVSDNGGLTLRNFCNWQRRFNQPSDRHPEHYDTAILLTRQNFCGQEGLCDTLGVADIGTICDPNKSCSVIEDEGLQAAHTLAHELGHVLSMPHDDSKPCTRLFGPMGKHHVMAPLFVHLNQTLPWSPCSAMYLTELLDGGHGDCLLDAPRAALPLPTGLPGRMALYQLDQQCRQIFGPDFRHCPNTSAQDVCAQLWCHTDGAEPLCHTKNGSLPWADGTPCGPGHLCSEGSCLPEEEVERPKPVADGGWAPWGPWGECSRTCGGGVQFSHRECKDPEPQNGGRYCLGRRAKYQSCHTEECPPDGKSFREQQCEKYNAYNYTDMDGNLLQWVPKYAGVSPRDRCKLFCRARGRSEFKVFEAKVIDGTLCGPETLAICVRGQCVKAGCDHVVDSPRKLDKCGVCGGKGNSCRKVSGSLTPTNYGYNDIVTIPAGATNIDVKQRSHPGVQNDGNYLALKTADGQYLLNGNLAISAIEQDILVKGTILKYSGSIATLERLQSFRPLPEPLTVQLLTVPGEVFPPKVKYTFFVPNDVDFSMQSSKERATTNIIQPLLHAQWVLGDWSECSSTCGAGWQRRTVECRDPSGQASATCNKALKPEDAKPCESQLCPLGSGSAWSHPQFEK

What was measured:
[1] = target: undigested bovine aggrecan, P13608
α-2 macroglobulin = target: T1, α-2 macroglobulin

Sequence of undigested bovine aggrecan, P13608 (P13608 20-2364): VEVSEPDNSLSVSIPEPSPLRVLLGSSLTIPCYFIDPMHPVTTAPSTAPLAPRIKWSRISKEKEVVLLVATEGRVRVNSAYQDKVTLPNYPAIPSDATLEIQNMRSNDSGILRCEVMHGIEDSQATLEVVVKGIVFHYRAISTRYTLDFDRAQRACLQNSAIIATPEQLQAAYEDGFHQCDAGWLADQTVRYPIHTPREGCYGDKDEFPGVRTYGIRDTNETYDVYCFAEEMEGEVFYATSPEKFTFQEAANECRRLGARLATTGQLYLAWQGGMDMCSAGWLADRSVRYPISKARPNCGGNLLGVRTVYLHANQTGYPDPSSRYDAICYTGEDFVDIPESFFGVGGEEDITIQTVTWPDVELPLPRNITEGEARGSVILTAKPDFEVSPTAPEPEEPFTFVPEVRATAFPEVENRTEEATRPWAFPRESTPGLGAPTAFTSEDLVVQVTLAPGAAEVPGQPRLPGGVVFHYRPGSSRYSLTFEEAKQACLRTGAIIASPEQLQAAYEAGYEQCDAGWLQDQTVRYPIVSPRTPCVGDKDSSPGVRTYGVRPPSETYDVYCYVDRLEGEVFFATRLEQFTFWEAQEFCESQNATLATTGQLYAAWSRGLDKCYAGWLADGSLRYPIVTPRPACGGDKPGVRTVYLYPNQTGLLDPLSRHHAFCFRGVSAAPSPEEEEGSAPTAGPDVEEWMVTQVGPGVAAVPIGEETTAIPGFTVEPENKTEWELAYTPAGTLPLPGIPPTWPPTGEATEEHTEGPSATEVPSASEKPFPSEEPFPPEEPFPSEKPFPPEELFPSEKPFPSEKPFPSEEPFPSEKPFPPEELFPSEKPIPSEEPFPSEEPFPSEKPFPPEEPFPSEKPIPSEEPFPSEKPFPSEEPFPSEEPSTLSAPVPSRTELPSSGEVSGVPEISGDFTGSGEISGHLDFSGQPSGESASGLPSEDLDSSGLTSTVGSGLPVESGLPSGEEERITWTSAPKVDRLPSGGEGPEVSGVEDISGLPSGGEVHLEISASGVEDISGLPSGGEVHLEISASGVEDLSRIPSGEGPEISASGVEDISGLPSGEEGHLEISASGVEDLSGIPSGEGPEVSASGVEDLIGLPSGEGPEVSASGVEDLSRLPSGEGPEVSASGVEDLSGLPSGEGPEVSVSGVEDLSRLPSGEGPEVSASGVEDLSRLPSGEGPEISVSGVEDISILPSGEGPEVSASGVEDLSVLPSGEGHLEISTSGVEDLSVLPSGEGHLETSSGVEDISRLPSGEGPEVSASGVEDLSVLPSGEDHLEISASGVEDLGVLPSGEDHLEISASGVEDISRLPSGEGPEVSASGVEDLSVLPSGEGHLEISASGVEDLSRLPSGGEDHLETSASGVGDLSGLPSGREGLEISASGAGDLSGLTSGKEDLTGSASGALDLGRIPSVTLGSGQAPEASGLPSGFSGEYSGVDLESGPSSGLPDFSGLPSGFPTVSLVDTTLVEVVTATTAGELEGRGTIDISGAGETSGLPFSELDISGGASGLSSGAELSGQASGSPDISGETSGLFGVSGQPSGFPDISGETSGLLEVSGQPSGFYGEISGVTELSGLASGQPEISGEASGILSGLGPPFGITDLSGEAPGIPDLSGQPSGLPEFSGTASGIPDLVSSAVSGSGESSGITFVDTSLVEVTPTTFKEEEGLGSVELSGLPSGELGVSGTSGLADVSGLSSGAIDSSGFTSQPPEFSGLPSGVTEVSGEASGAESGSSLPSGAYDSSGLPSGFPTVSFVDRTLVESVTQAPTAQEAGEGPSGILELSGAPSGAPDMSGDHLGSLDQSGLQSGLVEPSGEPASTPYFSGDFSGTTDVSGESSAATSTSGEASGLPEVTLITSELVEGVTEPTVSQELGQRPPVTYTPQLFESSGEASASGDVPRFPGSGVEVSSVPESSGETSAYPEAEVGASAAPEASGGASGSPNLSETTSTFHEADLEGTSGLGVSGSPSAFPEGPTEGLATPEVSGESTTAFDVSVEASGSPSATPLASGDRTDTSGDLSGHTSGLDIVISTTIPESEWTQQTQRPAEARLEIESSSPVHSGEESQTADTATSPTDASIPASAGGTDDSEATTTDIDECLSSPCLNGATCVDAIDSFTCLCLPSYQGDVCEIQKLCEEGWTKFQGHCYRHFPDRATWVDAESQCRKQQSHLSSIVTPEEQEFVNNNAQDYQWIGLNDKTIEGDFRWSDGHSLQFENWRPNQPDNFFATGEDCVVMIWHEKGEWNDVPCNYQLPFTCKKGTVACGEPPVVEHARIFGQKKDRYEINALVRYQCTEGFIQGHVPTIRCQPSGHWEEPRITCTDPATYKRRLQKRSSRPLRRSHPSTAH

| Protein | aggrecan cleavage by AGG-C1 Western blotting [1] | α2-macroglobulin assay (α-2 macroglobulin) | aggrecan cleavage seen by neoepitope Western blot [1] | lowest enzyme:substrate ratio at which cleavage is detected by Western blot [1] |
| --- | --- | --- | --- | --- |
| B1 | it seemed to be no more active than full-length recombinant ADAMTS-8 on aggrecan substrate as judged by AGG-C1 Western blotting | the purified protein was active as judged by α2-macroglobulin assay | – | – |
| B2 | – | – | MAb BC-3 immunoreactive bands increased in intensity with increasing amounts of ADAMTS-8 protein relative to aggrecan substrate | cleavage of bovine articular cartilage aggrecan by ADAMTS-8 at an enzyme:substrate ratio of 1:0.5 using the BC-3 neoepitope MAb ... can be readily detected |
